Patent publication US20240109962A1 (SPARX BIOSCIENCE, published 2024)
Positions count from the first letter of the chain named. Like-named read-outs stand apart in the source and are kept apart here. One block for each binder: values may come before it.

How the values were obtained:
[1] = target: T1, human LILRB2 expressed on cells (293T-LILRB2, CHO-K1-LILRB2) (human, UniProt Q8N423 22-597); assay: flow cytometry on 293T-LILRB2 cells, serial dilution, APC anti-human IgG; fit table under the graph
T1 construct: whole, on cells; the cell line is named under assay; also called HEK293T-LILRB2
T1 sequence (Q8N423 22-597): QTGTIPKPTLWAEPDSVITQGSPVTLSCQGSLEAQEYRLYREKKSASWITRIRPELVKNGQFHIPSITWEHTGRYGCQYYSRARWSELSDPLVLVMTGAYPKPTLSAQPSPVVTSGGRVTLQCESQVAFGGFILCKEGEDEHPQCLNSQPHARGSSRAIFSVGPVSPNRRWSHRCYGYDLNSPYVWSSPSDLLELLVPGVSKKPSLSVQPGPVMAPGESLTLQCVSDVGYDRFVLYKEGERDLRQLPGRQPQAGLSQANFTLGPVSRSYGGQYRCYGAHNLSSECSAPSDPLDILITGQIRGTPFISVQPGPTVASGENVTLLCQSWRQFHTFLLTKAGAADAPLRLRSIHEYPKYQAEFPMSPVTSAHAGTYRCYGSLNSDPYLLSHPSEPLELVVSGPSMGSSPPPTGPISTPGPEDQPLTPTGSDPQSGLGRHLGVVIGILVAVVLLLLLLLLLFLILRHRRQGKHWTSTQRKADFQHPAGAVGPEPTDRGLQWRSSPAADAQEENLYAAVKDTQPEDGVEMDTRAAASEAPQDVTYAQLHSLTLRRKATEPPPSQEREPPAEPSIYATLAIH
Description: (§1) The cells were washed and then subject to flow cytometry to measure levels of fluorescent signals.

[2] = target: T1, human LILRB2 expressed on cells …; assay: flow cytometry, blockade of His-tagged HLA-G tetramer binding to 293T-LILRB2 cells; fit table under the graph
Protocol: Serial diluted humanized LILRB2 antibodies were then added to the mixture and incubated at room temperature for another 45 minutes. The binding of HLA-G/LILRB2 was detected afterwards using a secondary PE-labeled anti-His tag antibody via flow cytometry.

[3] = target: T1, human LILRB2 expressed on cells …; assay: flow cytometry on 293T-LILRB2 cells, serial dilution, APC anti-human IgG; fit table under the graph; remark: listed apart in the source
Description: as §1

[4] = target: LILRB2 antigen of the ELISA of Table 5 (format not specified) (UniProt Q8N423 22-460, limits assumed); assay: ELISA, antibody titration
Chain of LILRB2 antigen of the ELISA of Table 5 (format not specified) (Q8N423 22-460 limits assumed): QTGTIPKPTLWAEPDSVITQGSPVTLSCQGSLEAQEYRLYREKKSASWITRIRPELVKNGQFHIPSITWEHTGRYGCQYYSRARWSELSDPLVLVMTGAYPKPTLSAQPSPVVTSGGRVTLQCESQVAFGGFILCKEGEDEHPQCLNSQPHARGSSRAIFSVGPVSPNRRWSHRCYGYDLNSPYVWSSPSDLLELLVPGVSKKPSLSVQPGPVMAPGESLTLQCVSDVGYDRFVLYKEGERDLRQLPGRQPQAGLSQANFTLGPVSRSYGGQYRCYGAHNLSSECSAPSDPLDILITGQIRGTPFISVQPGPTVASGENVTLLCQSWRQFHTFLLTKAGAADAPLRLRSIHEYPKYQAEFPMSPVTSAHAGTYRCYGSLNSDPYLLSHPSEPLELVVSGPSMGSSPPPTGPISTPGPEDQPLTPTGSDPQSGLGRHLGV

[5] = target: T2, human LILRB1 expressed on 293T cells (human, UniProt Q8NHL6 24-650); assay: flow cytometry on 293T transfectants, MFI
T2 construct: whole, on cells
T2 sequence (Q8NHL6 24-650): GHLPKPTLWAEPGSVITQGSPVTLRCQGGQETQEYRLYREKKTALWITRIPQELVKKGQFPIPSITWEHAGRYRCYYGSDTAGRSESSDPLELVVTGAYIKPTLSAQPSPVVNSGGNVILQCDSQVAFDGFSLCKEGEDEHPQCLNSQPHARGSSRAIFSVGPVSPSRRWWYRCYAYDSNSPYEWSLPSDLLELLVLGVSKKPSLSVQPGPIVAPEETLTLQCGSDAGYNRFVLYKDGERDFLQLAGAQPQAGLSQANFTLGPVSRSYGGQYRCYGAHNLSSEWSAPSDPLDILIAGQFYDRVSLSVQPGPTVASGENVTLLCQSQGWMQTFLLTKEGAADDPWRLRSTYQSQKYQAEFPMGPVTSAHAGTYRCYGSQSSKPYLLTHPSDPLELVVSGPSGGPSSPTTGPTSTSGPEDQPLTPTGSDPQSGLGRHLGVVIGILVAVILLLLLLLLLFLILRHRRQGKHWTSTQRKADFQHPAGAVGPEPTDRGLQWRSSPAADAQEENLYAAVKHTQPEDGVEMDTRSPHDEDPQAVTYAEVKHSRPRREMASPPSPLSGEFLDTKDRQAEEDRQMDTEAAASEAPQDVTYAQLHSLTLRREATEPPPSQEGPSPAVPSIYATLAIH
Protocol: (§2) The cells were then immobilized with glutaraldehyde in the presence of 5% defatted milk at room temperature for 2 hours. An anti-LILRB2 antibody (5 μg/ml) was added to each well and incubated at room temperature for 1 hours. An Alex Flour®-labelled goat anti-mouse secondary antibody (1:2,000 dilution) was then added into each well and incubated at room temperature for 30′. The cells were washed twice with PBS after the staining. Fluorescence intensities (MFI) were measured.

[6] = target: T3, human LILRB3 expressed on 293T cells (human, UniProt O75022 24-631); assay: flow cytometry on 293T transfectants, MFI
T3 construct: whole, on cells
Protocol: as §2

LILRB1-His = target: T4, LILRB1-His; assay: ELISA on recombinant His-tagged protein, OD450
T4 construct: also called His-tagged LILRB1; recombinant LILRB1 protein
T4 sequence (chain, as listed by the source limits assumed): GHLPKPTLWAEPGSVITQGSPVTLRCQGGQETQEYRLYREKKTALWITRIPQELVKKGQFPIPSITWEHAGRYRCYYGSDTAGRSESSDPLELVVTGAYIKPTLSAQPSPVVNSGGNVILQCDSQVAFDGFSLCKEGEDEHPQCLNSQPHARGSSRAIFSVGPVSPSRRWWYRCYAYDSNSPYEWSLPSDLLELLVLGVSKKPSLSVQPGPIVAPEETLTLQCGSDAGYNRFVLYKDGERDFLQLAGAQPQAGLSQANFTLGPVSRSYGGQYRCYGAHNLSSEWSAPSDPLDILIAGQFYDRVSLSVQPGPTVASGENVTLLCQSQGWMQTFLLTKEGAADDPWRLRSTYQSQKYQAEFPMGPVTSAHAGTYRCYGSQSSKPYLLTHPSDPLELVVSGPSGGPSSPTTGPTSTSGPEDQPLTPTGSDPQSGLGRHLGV

LILRB3-His = target: T5, LILRB3-His; assay: ELISA on recombinant His-tagged protein, OD450
T5 construct: also called His-tagged LILRB3; recombinant LILRB3 protein

[7] = target: T6, His-tagged human LILRB2 polypeptide (human, UniProt Q8N423 22-460); assay: SPR, antibody on CM5 chip, His-LILRB2 analyte, 1:1 model
T6 construct: SPR analyte; also called His-tagged human LILBR2 polypeptide; not shown: His tag
T6 sequence (Q8N423 22-460 limits assumed): as the sequence (Q8N423 22-460 limits assumed) above
Protocol: Surface plasmon resonance (SPR) was used to examine binding activities of exemplary anti-LILBR2 antibodies disclosed herein. Briefly, the anti-LILBR2 antibody was diluted in a coating buffer to a concentration of 30 μg/ml, loaded onto CM5 chips at 10 μl/min to allow coating of the antibody on the surface of the CM5 chip. […] Binding affinity was measured based on the 1:1 binding model.

[8] = target: T1, human LILRB2 expressed on cells …; assay: flow cytometry on 293T-LILRB2 cells, serial dilution, APC anti-human IgG; fit table under the graph; remark: listed apart in the source
Description: as §1

[9] = target: T3, human LILRB3 expressed on 293T cells; assay: cell ELISA on fixed 293T transfectants, OD490
Protocol: The cells were then immobilized with glutaraldehyde in the presence of 5% defatted milk at room temperature for 2 hours. An anti-LILRB2 antibody (2 μg/ml) was added to each well and incubated at room temperature for 2 hours. An HRP-labelled goat anti-mouse secondary antibody was then added into each well and incubated at room temperature for one hour. An HRP substrate, o-phenylenediamine dihydrochloride (OPD) was then added to each well. The plate was incubated at room temperature for 15 min to allow color development and OD₄₉₀ values were determined.

Bmax [1]: 684000 RFU | Kd [1]: 0.394 nM | IC50 [2]: 0.56 nM | Span [2]: 6960 RFU
B1: Antibody h#2C1 (antibody, V domains shown)
VH: EVQLVESGGGLVQPGGSLRLSCAVSGYSITSGYYWNWVRQAPGKGLEWVAYISYDGNNNYNPSLKNRFTISRDTSKNTFYLQMNSLRAEDTAVYYCAREESTMITTAWFAYWGQGTLVTVSS
VL: DIQMTQSPSSLSASVGDRVTITCRASENIYSNLAWYQQKPGKAPKLLIYGATNLASGVPSRFSGSGSGTDYTLTISSLQPEDFATYYCQHFWDTPYTFGQGTKVEIK
notes: Humanized variant of 11B12

IC50 [2]: 0.613 nM | Span [2]: 6830 RFU | Bmax [3]: 565000 RFU | Kd [3]: 0.412 nM
B2: Antibody h#2D1 (antibody, V domains shown)
VH: B1 VH with F79V, A97V
VL: B1 VL
notes: Humanized variant of 11B12

IC50 [2]: 0.429 nM | Span [2]: 7190 RFU | Bmax [3]: 563000 RFU | Kd [3]: 0.386 nM
B3: Antibody h#2D4 (antibody, V domains shown)
VH: B1 VH with A97V
VL: B1 VL
notes: Humanized variant of 11B12

IC50 [2]: 0.391 nM | Span [2]: 7660 RFU | Bmax [3]: 582000 RFU | Kd [3]: 0.292 nM
B4: Antibody h#2G6 (antibody, V domains shown)
VH: B1 VH with T74A
VL: B1 VL
notes: Humanized variant of 11B12

Bmax [1]: 683000 RFU | Kd [1]: 0.536 nM
B5: h#2G3 (antibody, V domains shown)
VH: B1 VH with V38I, F79V
VL: B1 VL with M4L
notes: also called Antibody h#2G3

Kd [4]: 2.93 nM | binding result [5]: no binding (tested: 5 µg/ml) | binding result [6]: no binding (tested: 5 µg/ml) | binding result (LILRB1-His): no binding | binding result (LILRB3-His): no binding
B6: Antibody 3B5 (antibody, V domains shown)
VH: EVQLQQSGPELVKPGASLKISCKASGYTFTDYNMHWVKQSHGKSLEWIGSIYPYNGDTDYNQKFKSKATLTIDNSSSTAFMDLRSLTSEDSAVYYCARENDYDGPPFPYWGLGTLVTVSA
VL: DIQMTQSSSSFSVSLGDRVTITCKASEDIYNRLAWYQQKSGNAPRLLISGATSLETGVPSRFSGSGSGKDYTLSITSLQTEDVATYYCQQYWSIRTFGGGTKLEIK
notes: Mouse hybridoma mAb purified from ascites

Kd [4]: 1.53 nM | binding result [5]: no binding (tested: 5 µg/ml) | binding result [6]: no binding (tested: 5 µg/ml) | Kd [7]: 1.57 nM | koff [7]: 0.000677 s⁻¹ | kon [7]: 432000 M⁻¹ s⁻¹
B7: Antibody 7G4 (antibody, V domains shown)
VH: QVQLKQSGPGLVQPSQSLSITCTVSGFSLATYGVHWVRQSPGKGLEWLGVMWRDGSTDYNAVFMSRLSITKDDSKSQVFFKMNSLQADDTAIYYCAKNPYLYGSSHYYAMDYWGQGTSVTVSS
VL: DIVMTQSPSSLSVSAGEKVTMSCKSSQSLLNSENQKNYLAWYQQKPGQPPKLLIYGASTRESGVPDRFTGSGSGTDFTLTISSVQAEDLAVYYCQNDHIYPFTFGSGTKLEIK
notes: as for B6

Kd [4]: 0.314 nM | binding result [5]: no binding (tested: 5 µg/ml) | binding result [6]: no binding (tested: 5 µg/ml)
B8: Antibody 13C5 (antibody, V domains shown)
VH: B7 VH with A30T, Y32F, M51I, D54G, V62A, D73N, L101Q
VL: B7 VL with E33G, D76V, Y100L
notes: as for B6

Kd [4]: 0.804 nM | binding result [5]: no binding (tested: 5 µg/ml) | binding result [6]: no binding (tested: 5 µg/ml) | binding result (LILRB3-His): no binding | Kd [7]: 0.962 nM | koff [7]: 0.00025 s⁻¹ | kon [7]: 260000 M⁻¹ s⁻¹
B9: Antibody 14C11 (antibody, V domains shown)
VH: EVQLQQSGPDLVKPGASVKISCKASGYIFTDFNMHWVKQSHGKSLEWIGYIYPFNGGTGYNQKFENKATLTVDNSSSTAYMEVRSLTSEDSAVYYCARRGGRGHFDYWGQGTTLTVSS
VL: DIQMTQSPASLSASVGETVTVTCRASGNIHNYLAWYQQKQGKSPQLLVYNAKTLADGVPSRFSGSGSGTQFSLKINSLQPEDFGSYYCQHFWNTPFTFGSGTKLEIK
notes: as for B6

Kd [4]: 2.18 nM | binding result [5]: no binding (tested: 5 µg/ml) | binding result [6]: no binding (tested: 5 µg/ml)
B10: Antibody 2F1 (antibody, V domains shown)
VH: EVKLEESGGGLVQPGGSMKLSCAASGFTFSDAWMDWVRQSPKKGLEWVAEIRSKSNNHTTYYAESVKGRFTISRDDSKSSVYLQMNSLRAEDTGIYYCTRDWLTYWGQGTLVTVSA
VL: DIVLTQSPASLAVSLGQRATISCRASKSVSTSGYSYMNWYQQKPGQPPKLLIYLASNLESGVPARFSGSGSGTDFTLNIHPVEEEDAATYYCQHSRELPLTFGAGTKLELK
notes: as for B6

Kd [4]: 4.37 nM | binding result [5]: no binding (tested: 5 µg/ml) | binding result [6]: no binding (tested: 5 µg/ml) | binding result (LILRB1-His): no binding | Kd [7]: 0.227 nM | koff [7]: 0.00014 s⁻¹ | kon [7]: 618000 M⁻¹ s⁻¹
B11: Antibody 12D8 (antibody, V domains shown)
VH: QVQLRQSGPGLVQPSQSLSITCTVSGFSLTSYGVHWVRQSPGKGLEWLGVIWSGGITDYNAAFISRLSISKDNSKSQVFFRMNSLQTNDTAIYYCAREIYGNPDYWGQGTTLTVSS
VL: DIVMTQSHKFMSTSVGDRVSITCKASQDVSIAVAWFQQKPGQSPKLLIYSASYRYTGVPDRFSGSGSGTDFTFTISSVQAEDLAVYYCQQHYSTPRTFGGGTKLEIK
notes: as for B6

Bmax [8]: 582000 RFU | Kd [8]: 0.171 nM
B12: chimeric 11B12 (antibody, V domains shown)
VH: DVQLQESGPGLVKPSQSLSLTCSVTGYSITSGYYWNWIRQFPGNKLEWMGYISYDGNNNYNPSLKNRISITRDTSKNQFFLKLNSVTTEDTATYYCAREESTMITTAWFAYWGQGTLVTVSA
VL: DIQMTQSPASLSVSVGETVTITCRASENIYSNLAWYQQKQGKSPQLLVYGATNLADGVPSRFSGSGSGTQYSLKINSLQSEDFGSYFCQHFWDTPYTFGGGTKLEIK

Kd [4]: 0.195 nM | binding result (LILRB3-His): no binding | binding result [9]: no binding (tested: 2 µg/ml)
B13: Antibody 10B11 (antibody, V domains shown)
VH: EIQLQQSGPELVKPGASVKVSCKASGNSFTDNNIYWVKQSHGESLEWIGYIDPFNGRTTYNQKFKGKATLTVDKSSSTAFMHLNSLTSGDSAVYYCARGDYFNYWGQGTTLTVSS
VL: EIQMTQTTSSLSASLGDRVTISCSASQGINNYLNWFQQKSDGTVKLLIYYTSSLHSGVPSRFSGSGSGTDYSLTISNLEPEDIAIYYCQQYSNLPFTFGGGTELEIK
notes: as for B6

Kd [4]: 0.216 nM | binding result (LILRB3-His): no binding | binding result [9]: no binding (tested: 2 µg/ml)
B14: Antibody 4A9 (antibody, V domains shown)
VH: EIQLQQSGPELVKPGASVKVSCKASGSSFTDYNMYWVKQIHGKSLDWIGYIDPYNGRTTYNQKFKGKATLTVDKSSSTAFMHLNSLTSEDSAVYYCAGGDYFDYWGHGTSLTVSS
VL: B13 VL with N30S, S40P, S53T, Y71F, E79D, I83F, I85T, F96Y, E103K
notes: as for B6

Kd [4]: 1.43 nM | binding result (LILRB3-His): no binding | binding result [9]: no binding (tested: 2 µg/ml)
B15: Antibody 11D9 (antibody, V domains shown)
VH: EIQLQQSGPELVKPGASVKLSCKASGYAFTTYNMYWVKQSPGKSLEWIGYIDPYNGGATYNLKFKGKATLTVDKSSSAAYMHLNGLTSEDSAVYYCAGGDYFNYWGQGTILTVSS
VL: B13 VL with E1D, S24R, G28V, S40P, S53T, I83F, I85T, N93T, F96Y, E103K
notes: as for B6
